Experimental data: patent US11994512B2, “Single-cell genomic methods to generate ex vivo cell systems that recapitulate in vivo biology with improved fidelity” (Massachusetts Institute of Technology, priority 2018, dated 2024)

Tested on: intracellular proteome of ENR+CD and ENR organoids
Assay: LC-MS/MS TMT proteomics of ENR+CD versus ENR organoids
Type: cell-based, C57BL/6 mice
Details: for Average logFC / M1-1 Log2 Median Normalized / M1-2 Log2 Median Normalized / M2-1 Log2 Median Normalized / M2-2 Log2 Median Normalized: protein abundance, ENR+CD versus ENR organoids; for Average logFC: aggregate of the four sample pairs; for M1-1 Log2 Median Normalized: replicate M1-1; for M1-1 Log2 Median Normalized / M1-2 Log2 Median Normalized / M2-1 Log2 Median Normalized / M2-2 Log2 Median Normalized: log2 ratio; for M1-2 Log2 Median Normalized: replicate M1-2; for M2-1 Log2 Median Normalized: replicate M2-1; for M2-2 Log2 Median Normalized: replicate M2-2; for change: up = enriched in ENR+CD, down = enriched in ENR, FDR<0.05 and log fold change cut-off
Text: Because PCs are highly secretory, protein-rich cells, Applicants sought to assess the total intracellular proteome between conditions through liquid chromatography mass spectrometry (LC-MS/MS)-based proteomics. Applicants quantified relative protein abundance across eight samples using isobaric mass tag labeling from four ENR and four ENR+CD samples (M1-1 through M2-2, first digit denotes biological donor, second digit denotes technical replicate) (FIG. 3A). Samples were processed and analyzed in a single 10-plex by LC-MS/MS (FIG. 9A).
To affirm the reproducibility of the associated proteins in the ENR+CD-enriched proteome, Applicants performed relative quantification within differentiation sets.
Mass spectrometry proteomics sample preparation, sequencing, and quantification. Organoid cell pellets were isolated from Matrigel with mechanical dissociation and washed (cold PBS 5X) to remove residual extracellular protein. Proteins were extracted from cell pellets with 8 M urea (Sigma), reduced with 5 mM DTT (Thermo Fisher Pierce) for 45 minutes, alkylated with 10 mM IAA (Sigma) for 45 minutes in the dark, and double digested with both Lysyl Endopeptidase “LysC” (Wako) and trypsin (Promega) overnight at RT. A small aliquot of cellular lysate was removed from each sample for protein quantification via the Pierce™ BCA Protein Assay Kit (Pierce). After proteolytic digestion, the samples were quenched using formic acid to a final concentration of 1.0% and subsequently desalted on 10 mg OASIS HLB solid phase columns (Waters).
The peptides were labeled with TMT-10 isobaric mass tag reagent according to manufacturer's instructions (ThermoFisher Scientific). The peptides were labeled at a 1:8 ratio of peptide to TMT reagent, followed by 1-hour incubation at RT with bench top shaking at 850 rpm. After incubation, a […] of labeled tryptic peptide was removed from each labeled condition, desalted with C18 stage tips, and analyzed via LC-MS/MS using a Thermo Fisher Q Exactive Plus Hybrid Mass Spectrometer (QE-Plus) coupled to a Thermo Fisher EASY-nLC 1000 liquid chromatograph to ensure isobaric label incorporation >95%. An additional 1.0 μg of labeled tryptic peptide was removed from each channel, mixed together, desalted on a C18 stage tip, and analyzed via LC-MS to ensure equal relative protein loads. During these quality control steps, the labeled peptides were stored, unquenched at −80° C.

| Molecule | Average logFC | M1-1 Log2 Median Normalized | M1-2 Log2 Median Normalized | M2-1 Log2 Median Normalized | M2-2 Log2 Median Normalized | change |
| --- | --- | --- | --- | --- | --- | --- |
| B9EJ86 (protein, UniProt B9EJ86 1-889, looked up, full-length) MEAALADGEPDRSSLLGDSKDVLGPSTVVANSDEPQHLTPGKMSQRQGRDANPTPTRDLPQPSLSPASLHSQGFERGKEDISQNKDDSSLSMSKSKSESKLYNGSEKDSSTSSKLTKKESLKVQKKNYREEKKRATKELLSTITDPSVIVMADWLKIRGTLKSWTKLWCVLKPGVLLIYKTQKNGQWVGTVLLNACEIIERPSKKDGFCFKLFHPLEQSIWAVKGPKGEAVGSITQPLPSSYLIIRATSESDGRCWMDALELALKCSSLLKRTMVREGKEHDLSISSDSTHVTLYGLLRANNLHSGDNFQLNDSEIERQHFKDQDLYSDKSDKENDPEHDESDNEVLGKSEESDTDTSERQDDSYIDPEPVEPLKETTYMEQSHEELGEAGEASQTETVSEENKSLIWTLLKQVRPGMDLSRVVLPTFILEPRSFLDKLSDYYYHADFLSEAALEENPYFRLKKVVKWYLSGFYKKPKGLKKPYNPILGETFRCLWIHPRTNSKTFYIAEQVSHHPPISAFYVSNRKDGFCLSGSILAKSKFYGNSLSAILEGEARLTFLNRGEDYVMTMPYAHCKGILYGTMTLELGGTVNITCQKTGYSAILEFKLKPFLGSSDYVNQISGKLKLGKEVLATLEGHWDSEVFINDKKTDNSEIFWNPTPDIKQWRLIRHTVKFEEQDDFESEKLWQRVTKAINAKDQTEATQEKYVLEEAQRQAARDRKTKTQEWVCKLFELDPLTGEWHYKFSDTRPWDPLNDMIQFEKDGVIQTKVKHRTPMVSVPKMKHKPTRQQKKVVKGYSSPEPDIQDSSGSEAQSVKPSTRRKKGIDLGDIQSSIESIKQTQEEIKRNIMALRNHLLSSTPATDYFLQQKDYFVIFLLILLQVIINFIFK | 1.24 | 1.242 | 1.864 | 1.0905 | 0.802 | up |
| E9Q5C9 (protein, UniProt E9Q5C9 1-702, looked up, full-length) MADTGLRRVVPSDLYPLVLRFLRDSQLSEVASKFAKATGATQQDANASSLLDIYSFWLNRSTKAPKVKLQSNGPVTKKAKKETSSSDSSEDSSEDEDKKAQGLPTQKAAAQVKRASVPQHAGKAAAKASESSSSEESSEEEEEDKKKKPVQQKAAKPQAKAVRPPAKKAESSESDSDSDSDSSSEEETPQTQKPKAAVAAKAQTKAEAKPGTPAKAQPKVANGKAAASSSSSSSSDDSEEEKKAAAPPKKTVPKKQVVAKAPVKVAAAPTQKSSSSEDSSSEEEEGQRQPMKKKAGPYSSVPPPSVPLPKKSPGTQAPKKAAAQTQPADSSDDSSDDSDSSSEEEKKPPAKTVVSKTPAKAAPVKKKAESSSDSSDSDSSEDEAPAKPVSTTKSPKPAVTPKPSAAKAVTTPKQPAGSNQKPQSRKADSSSSEEESSSSEEEEASKKSATTPKAKVTAKAAPAKQAPQAAGDSSSDSDSSSSEEEEKTPKPPAKKKAAGGAVSTPAPGKKAEAKSSSSSSSSSSEDSSEEEKKKKPKATTPKIQASKANGTPASLNGKAAKESEEEEEEEETEEKKKAAGTKPGSGKKRKQNETADEATTPQAKKVKLETPNTFPKRKKGERRASSPFRRVREEEIEVDSRVADNSFDAKRGAAGDWGERANQVLKFTKGKSFRHEKTKKKRGSYRGGSISVQVNSVKFDSE | −1.884 | −1.968 | −1.821 | −1.5075 | −2.239 | down |
| O35280 (protein, UniProt O35280 1-476, looked up, full-length) MAVPFVEDWDLVQTLGEGAYGEVQLAVNRITEEAVAVKIVDMKRAIDCPENIKKEICINKMLSHENVVKFYGHRREGHIQYLFLEYCSGGELFDRIEPDIGMPEQDAQRFFHQLMAGVVYLHGIGITHRDIKPENLLLDERDNLKISDFGLATVFRHNNRERLLNKMCGTLPYVAPELLKRKEFHAEPVDVWSCGIVLTAMLAGELPWDQPSDSCQEYSDWKEKKTYLNPWKKIDSAPLALLHKILVETPSARITIPDIKKDRWYNKPLNRGAKRPRATSGGMSESSSGFSKHIHSNLDFSPVNNGSSEETVKFSSSQPEPRTGLSLWDTGPSNVDKLVQGISFSQPTCPEHMLVNSQLLGTPGSSQNPWQRLVKRMTRFFTKLDADKSYQCLKETFEKLGYQWKKSCMNQVTVSTTDRRNNKLIFKINLVEMDEKILVDFRLSKGDGLEFKRHFLKIKGKLSDVVSSQKVWFPVT | −1.266 | −1.09 | −1.001 | −1.4995 | −1.475 | down |
| O09037 (protein, UniProt O09037 1-175, looked up, full-length) MLPHLVLNSISWMLLSCLLFVFQVQGEDFQKEVPSPRTSCPMGYKAYRSHCYALVMTPKSWFQADLVCQKRPSGHLVSILSGGEASFVSSLVNGRVDNYQDIWIGLHDPTMGQQPNGGGWEWSNSDVLNYLNWDGDPSSTVNRGHCGSLTASSGFLKWGDYYCDGTLPFVCKFKQ | −1.611 | −1.64 | −2.141 | −1.5875 | −1.077 | down |
| D3YUE4 (protein, UniProt D3YUE4 1-279, looked up, full-length) MAACAGGPGSWSENILKYFLRNNQITAEDGAEILWSHAANHKSQMNEALKSAAHMIEADVLLPSDGSEHGQPIMAHPPETSSDNTLQEWLAEVVKSNKGIKLDFKSLAAVRASMLFLDNMKQHLQRPVWINADILPGPNGSSKVVDAKAFLDTVTSFFPDVTFSLGWTTGWHPEKVNEGYSWSMVKEMDYICSELTQPVTFPVRAALVRQSCPQLLWLLTKSNRYSLTVWTGKDDIYSTEDLLYIRDYFNKTQVFYDISEPQNHEFKQAIGIRGHSLRI | −1.165 | −0.678 | −1.053 | −1.3175 | −1.611 | down |
| O08529 (protein, UniProt O08529 1-700, looked up, full-length) MAGIAIKLAKDREAAEGLGSHERAIKYLNQDYETLRNECLEAGALFQDPSFPALPSSLGYKELGPYSSKTRGIEWKRPTEICADPQFIIGGATRTDICQGALGDCWLLAAIASLTLNEEILARVVPPDQSFQENYAGIFHFQFWQYGEWVEVVVDDRLPTKDGELLFVHSAEGSEFWSALLEKAYAKINGCYEALSGGATTEGFEDFTGGIAEWYELRKPPPNLFKIIQKALEKGSLLGCSIDITSAADSEAVTYQKLVKGHAYSVTGAEEVESSGSLQKLIRIRNPWGQVEWTGKWNDNCPSWNTVDPEVRANLTERQEDGEFWMSFSDFLRHYSRLEICNLTPDTLTCDSYKKWKLTKMDGNWRRGSTAGGCRNYPNTFWMNPQYLIKLEEEDEDEEDGERGCTFLVGLIQKHRRRQRKMGEDMHTIGFGIYEVPEELTGQTNIHLGKNFFLTTRARERSDTFINLREVLNRFKLPPGEYVLVPSTFEPHKDGDFCIRVFSEKKADYQAVDDEIEANIEEIDANEEDIDDGFRRLFVQLAGEDAEISAFELQTILRRVLAKRQDIKSDGFSIETCKIMVDMLDEDGSGKLGLKEFYILWTKIQKYQKIYREIDVDRSGTMNSYEMRKALEEAGFKLPCQLHQVIVARFADDELIIDFDNFVRCLVRLETLFKIFKQLDPENTGTIQLNLASWLSFSVL | 1.309 | 1.421 | 1.297 | 1.1725 | 1.347 | up |
| O09010 (protein, UniProt O09010 1-378, looked up, full-length) MLQRCGRRLLLALVGALLACLLVLTADPPPTPMPAERGRRALRSLAGSSGGAPASGSRAAVDPGVLTREVHSLSEYFSLLTRARRDADPPPGVASRQGDGHPRPPAEVLSPRDVFIAVKTTRKFHRARLDLLFETWISRHKEMTFIFTDGEDEALAKLTGNVVLTNCSSAHSRQALSCKMAVEYDRFIESGKKWFCHVDDDNYVNLRALLRLLASYPHTQDVYIGKPSLDRPIQATERISEHKVRPVHFWFATGGAGFCISRGLALKMGPWASGGHFMSTAERIRLPDDCTIGYIVEALLGVPLIRSGLFHSHLENLQQVPTTELHEQVTLSYGMFENKRNAVHIKGPFSVEADPSRFRSVHCHLYPDTPWCPRSAIF | 1.464 | 1.443 | 1.37 | 1.4835 | 1.56 | up |
